Experimental data taken from article PMC12164381 (mAbs, 2025).
Positions count from the first letter of the chain named. Read-outs that look alike come from different tables or passages of the source.

B1: REGN10987 (antibody, V domains shown)
VH: QVQLVESGGGVVQPGRSLRLSCAASGFTFSNYAMYWVRQAPGKGLEWVAVISYDGSNKYYADSVKGRFTISRDNSKNTLYLQMNSLRTEDTAVYYCASGSDYGDYLLVYWGQGTLVTVSS
VL: QSALTQPASVSGSPGQSITISCTGTSSDVGGYNYVSWYQQHPGKAPKLMIYDVSKRPSGVSNRFSGSKSGNTASLTISGLQSEDEADYYCNSLTSISTWVFGGGTKLTVL
B2: Inverse folding design from the DXP-604 starting point (Table 5, design row 1, the 5th table, row 4) (antibody, V domains shown)
VH: EVQLVESGGGLIQPGGSLRLSCAASGIIVSRNYMTWVRQAPGKGLEWVSVIYSGGSTFYADSVKGRFTISRDNSKNTLYLQMSSLRAEDTAVYYCARDLGPYGMDVWGQGTTVTVSS
VL: DIQLTQSPSFLSASVGDRVTITCRASQGISSDLAWYQQKPGKAPNLLIYAASTLQSGVPSRFSGSGSGTEFTLTISSLQPEDFATYYCQQLMDTLYTFGQGTKLEIK
B3: Inverse folding design from the DXP-604 starting point (Table 5, design row 2, the 5th table, row 5) (antibody, V domains shown)
VH: B2 VH with S56T, G100A, P101V
VL: B2 VL with S30G, M92N, D93S, T94D
B4: Inverse folding design from the DXP-604 starting point (Table 5, design row 3, the 5th table, row 6) (antibody, V domains shown)
VH: B2 VH
VL: B2 VL with M92N, T94L
B5: Inverse folding design from the DXP-604 starting point (Table 5, design row 6, the 5th table, row 9) (antibody, V domains shown)
VH: B2 VH
VL: B2 VL with S30G, M92N, D93S, T94D
B6: Inverse folding design from the DXP-604 starting point (Table 5, design row 4, the 5th table, row 7) (antibody, V domains shown)
VH: B2 VH with S56T
VL: B2 VL with S30G, M92N, D93S, T94D
B7: Inverse folding design from the DXP-604 starting point (Table 5, design row 5, the 5th table, row 8) (antibody, V domains shown)
VH: B2 VH with S53P, P101V
VL: B2 VL with M92N, T94Y
B8: Inverse folding design from the DXP-604 starting point (Table 5, design row 7, the 5th table, row 10) (antibody, V domains shown)
VH: B2 VH
VL: B2 VL with M92N, D93S, T94D
B9: S2K146 (antibody, V domains shown)
VH: QVQLVESGGVVVQPGGSLRLSCAASGFTFHDHTMHWVRQAPGKGLEWVSLITWNGGTIHYSDSVKGRFTISRDNSKNSLYLQMNSLRTEDTALYYCAKDLGRGGWYLPSDAWGQGTLVTVSS
VL: not shown
B10: LY-CoV1404 (antibody, V domains shown)
VH: QITLKESGPTLVKPTQTLTLTCTFSGFSLSISGVGVGWLRQPPGKALEWLALIYWDDDKRYSPSLKSRLTISKDTSKNQVVLKMTNIDPVDTATYYCAHHSISTIFDHWGQGTLVTVSS
VL: QSALTQPASVSGSPGQSITISCTATSSDVGDYNYVSWYQQHPGKAPKLMIFEVSDRPSGISNRFSGSKSGNTASLTISGLQAEDEADYYCSSYTTSSAVFGGGTKLTVL
B11: Inverse folding design from the LY-CoV1404 starting point (Table 5, design row 1, the 5th table, row 12) (antibody, V domains shown)
VH: B10 VH with I31T
VL: B10 VL with D31N, T95S, A98V
B12: Inverse folding design from the LY-CoV1404 starting point (Table 5, design row 2, the 5th table, row 13) (antibody, V domains shown)
VH: B10 VH
VL: B10 VL with D31I, S97A
B13: BD55–5840 (antibody, V domains shown)
VH: VQLAQSGSELRKPGASVKVSCDTSGHSFTSNAIHWVRQAPGQGLEWMGWINTDTGTPTYAQGFTGRFVFSLDTSARTAYLQISSLKADDTAVFYCARERDYSDYFFDYWGQGTLVTVSS
VL: EVVMTQSPASLSVSPGERATLSCRARASLGISTDLAWYQQRPGQAPRLLIYGASTRATGIPARFSGSGSGTEFTLTISSLQSEDSAVYYCQQYSNWPLTFGGGTKVEIK

Tests used:
Assay in all cases: SPR
[1] = molecular target: T1, SARS-CoV-2 Spike RBD, original (Wuhan) strain (SARS-CoV-2, original Wuhan strain, UniProt P0DTC2)
[2] = molecular target: SARS-CoV-2 Spike RBD, XBB.1.5 strain (SARS-CoV-2, Omicron XBB.1.5, strain)
[3] = molecular target: T1, SARS-CoV-2 Spike RBD, original (Wuhan) …; remark: listed apart in the source

Binder | pKD [1] | pKD [2] | pKD [3]
B1 | 7.84 -log10(KD) | – | –
B2 | – | 6.33 -log10(KD) | 10 -log10(KD)
B3 | – | 6.15 -log10(KD) | 10.2 -log10(KD)
B4 | – | 6.01 -log10(KD) | 9.38 -log10(KD)
B5 | – | 6.28 -log10(KD) | 10 -log10(KD)
B6 | – | 6.35 -log10(KD) | 9.53 -log10(KD)
B7 | – | 6.33 -log10(KD) | 10.8 -log10(KD)
B8 | – | 6.07 -log10(KD) | 10.6 -log10(KD)
B9 | 10.3 -log10(KD) | – | –
B10 | 9.01 -log10(KD) | – | –
B11 | – | – | 9.57 -log10(KD)
B12 | – | – | 9.48 -log10(KD)
B13 | 10.1 -log10(KD) | – | –
